# Measured values: article PMC10628450 (2023)
# B1: Anti-NKp46 IgG (antibody)
# chain 1: QVQLVQSGAEVKKPGSSVKVSCKASGYTFSDYVINWVRQAPGQGLEWMGEIYPGSGTNYYNEKFKAKATITADKSTSTAYMELSSLRSEDTAVYYCARRGRYGLYAMDYWGQGTTVTVSS
# chain 2: DIQMTQSPSSLSASVGDRVTITCRASQDISNYLNWYQQKPGKAPKLLIYYTSRLHSGVPSRFSGSGSGTDFTFTISSLQPEDIATYFCQQGNTRPWTFGGGTKVEIK
# modifications: In-house soluble FcRn-His6, tag omitted; ectodomain limits from UniProt topology; beta-2-microglobulin is not named in the paper and is added by convention as the obligate light chain; check residues are not from the paper; N-glycosylated
# Assays:
# FcRn-His6 [1] = biological target: T1, FcRn-His6 (UniProt P55899 24-365); assay: BLI; pH 6
# T1 sequence (P55899 24-297, chain 1 of 2): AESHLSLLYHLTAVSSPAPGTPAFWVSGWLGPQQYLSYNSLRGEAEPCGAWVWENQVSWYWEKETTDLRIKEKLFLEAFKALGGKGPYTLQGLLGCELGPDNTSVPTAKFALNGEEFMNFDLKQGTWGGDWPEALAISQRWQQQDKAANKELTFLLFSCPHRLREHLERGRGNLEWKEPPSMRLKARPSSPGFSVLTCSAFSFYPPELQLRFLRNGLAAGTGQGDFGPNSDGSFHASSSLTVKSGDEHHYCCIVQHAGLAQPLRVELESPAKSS
# T1 sequence (chain, as listed by the source, chain 2 of 2): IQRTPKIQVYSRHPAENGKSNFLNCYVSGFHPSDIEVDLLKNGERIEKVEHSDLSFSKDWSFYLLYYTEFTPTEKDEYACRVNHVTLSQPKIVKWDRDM
# FcRn-His6 [2] = biological target: T1, FcRn-His6; assay: BLI; pH 6; remark: listed apart in the source
binder,measurement,setting,value
B1,koff,FcRn-His6 [1],0.0685 s⁻¹
same,Kd,FcRn-His6 [2],361 nM
